From the supplement of paper PMC9112550, “Optimization of the antimicrobial peptide Bac7 by deep mutational scanning” (BMC Biology, 2022)

Tested on: Escherichia coli TOP10
Experiment: shrunken log2 fold change of peptide-encoding DNA abundance (4.5 h post-induction vs induction); higher = less antimicrobial activity (less host growth inhibition)
Conditions: time post-induction: 4.5 h; library: site-saturation at positions 5, 18, 19, 20
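Also: peptides expressed intracellularly from a pBAD plasmid library in pooled LB shake-flask culture, induced with 0.3% L-arabinose, DNA abundance read by NGS, three biological replicates, DESeq2 with apeglm shrinkage.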

| Sequence | shrunken log2 fold change |
| --- | --- |
| RRIRYRPPRLPRPRPRPKSPPRP | 0.0245 |
| RRIRYRPPRLPRPRPRPKSSPRP | -0.147 |
| RRIRYRPPRLPRPRPRPKTCPRP | -0.0102 |
| RRIRYRPPRLPRPRPRPKVEPRP | -0.157 |
| RRIRYRPPRLPRPRPRPKVLPRP | -0.04 |
| RRIRYRPPRLPRPRPRPKWEPRP | -0.263 |
| RRIRYRPPRLPRPRPRPKWPPRP | -0.0557 |
| RRIRYRPPRLPRPRPRPKYIPRP | -0.665 |
| RRIRYRPPRLPRPRPRPKYSPRP | -0.274 |
| RRIRYRPPRLPRPRPRPLANPRP | -0.371 |
| RRIRYRPPRLPRPRPRPLAVPRP | -0.0867 |
| RRIRYRPPRLPRPRPRPLCDPRP | -0.12 |
| RRIRYRPPRLPRPRPRPLCGPRP | -0.557 |
| RRIRYRPPRLPRPRPRPLDGPRP | -0.467 |
| RRIRYRPPRLPRPRPRPLEMPRP | -0.0768 |
| RRIRYRPPRLPRPRPRPLESPRP | -0.0422 |
| RRIRYRPPRLPRPRPRPLFMPRP | -1.24 |
| RRIRYRPPRLPRPRPRPLFSPRP | -0.673 |
| RRIRYRPPRLPRPRPRPLFTPRP | -0.962 |
| RRIRYRPPRLPRPRPRPLFYPRP | -0.335 |
| RRIRYRPPRLPRPRPRPLGHPRP | 0.0209 |
| RRIRYRPPRLPRPRPRPLHLPRP | -0.516 |
| RRIRYRPPRLPRPRPRPLIKPRP | -0.386 |
| RRIRYRPPRLPRPRPRPLIQPRP | -0.559 |
| RRIRYRPPRLPRPRPRPLLFPRP | -0.614 |

| Sequence | shrunken log2 fold change |
| --- | --- |
| RRIRYRPPRLPRPRPRPLLIPRP | -0.798 |
| RRIRYRPPRLPRPRPRPLNRPRP | -1.92 |
| RRIRYRPPRLPRPRPRPLPIPRP | -0.722 |
| RRIRYRPPRLPRPRPRPLPRPRP | 0.00472 |
| RRIRYRPPRLPRPRPRPLQQPRP | -0.25 |
| RRIRYRPPRLPRPRPRPLSLPRP | -1.1 |
| RRIRYRPPRLPRPRPRPLTDPRP | -0.134 |
| RRIRYRPPRLPRPRPRPLTWPRP | -0.333 |
| RRIRYRPPRLPRPRPRPLVHPRP | 0.0162 |
| RRIRYRPPRLPRPRPRPLVRPRP | -0.0244 |
| RRIRYRPPRLPRPRPRPLWPPRP | -0.135 |
| RRIRYRPPRLPRPRPRPLWQPRP | -0.499 |
| RRIRYRPPRLPRPRPRPLWSPRP | 0.0381 |
| RRIRYRPPRLPRPRPRPMAKPRP | -0.0343 |
| RRIRYRPPRLPRPRPRPMCRPRP | -0.181 |
| RRIRYRPPRLPRPRPRPMCWPRP | -0.213 |
| RRIRYRPPRLPRPRPRPMDDPRP | -0.0837 |
| RRIRYRPPRLPRPRPRPMDRPRP | -0.0498 |
| RRIRYRPPRLPRPRPRPMDTPRP | -0.216 |
| RRIRYRPPRLPRPRPRPMEAPRP | -0.163 |
| RRIRYRPPRLPRPRPRPMFHPRP | -1.24 |
| RRIRYRPPRLPRPRPRPMFPPRP | -0.463 |
| RRIRYRPPRLPRPRPRPMGTPRP | -0.304 |
| RRIRYRPPRLPRPRPRPMHNPRP | 0.162 |
| RRIRYRPPRLPRPRPRPMINPRP | -1.18 |

| Sequence | shrunken log2 fold change |
| --- | --- |
| RRIRYRPPRLPRPRPRPMKLPRP | -0.58 |
| RRIRYRPPRLPRPRPRPMLPPRP | -0.0473 |
| RRIRYRPPRLPRPRPRPMLSPRP | 0.0215 |
| RRIRYRPPRLPRPRPRPMMCPRP | 0.168 |
| RRIRYRPPRLPRPRPRPMMEPRP | -0.141 |
| RRIRYRPPRLPRPRPRPMMNPRP | -0.367 |
| RRIRYRPPRLPRPRPRPMNYPRP | -0.49 |
| RRIRYRPPRLPRPRPRPMPFPRP | 0.00489 |
| RRIRYRPPRLPRPRPRPMQDPRP | -0.28 |
| RRIRYRPPRLPRPRPRPMRDPRP | -0.151 |
| RRIRYRPPRLPRPRPRPMRKPRP | -0.00197 |
| RRIRYRPPRLPRPRPRPMSDPRP | 0.0277 |
| RRIRYRPPRLPRPRPRPMSFPRP | -0.00962 |
| RRIRYRPPRLPRPRPRPMSGPRP | -0.748 |
| RRIRYRPPRLPRPRPRPMSKPRP | 3.29 |
| RRIRYRPPRLPRPRPRPMTEPRP | -0.0202 |
| RRIRYRPPRLPRPRPRPMTIPRP | -0.936 |
| RRIRYRPPRLPRPRPRPMTKPRP | 0.0153 |
| RRIRYRPPRLPRPRPRPMTTPRP | -0.2 |
| RRIRYRPPRLPRPRPRPMTWPRP | -0.31 |
| RRIRYRPPRLPRPRPRPMWGPRP | 0.171 |
| RRIRYRPPRLPRPRPRPMWPPRP | 0.158 |
| RRIRYRPPRLPRPRPRPMYGPRP | -0.00999 |
| RRIRYRPPRLPRPRPRPNCFPRP | -0.43 |
| RRIRYRPPRLPRPRPRPNDAPRP | 0.011 |

| Sequence | shrunken log2 fold change |
| --- | --- |
| RRIRYRPPRLPRPRPRPNDKPRP | -0.892 |
| RRIRYRPPRLPRPRPRPNGSPRP | -0.289 |
| RRIRYRPPRLPRPRPRPNHAPRP | -0.142 |
| RRIRYRPPRLPRPRPRPNHMPRP | -0.611 |
| RRIRYRPPRLPRPRPRPNIQPRP | -1.58 |
| RRIRYRPPRLPRPRPRPNITPRP | -1.03 |
| RRIRYRPPRLPRPRPRPNKHPRP | -0.916 |
| RRIRYRPPRLPRPRPRPNKSPRP | -0.941 |
| RRIRYRPPRLPRPRPRPNLIPRP | -0.438 |
| RRIRYRPPRLPRPRPRPNLPPRP | -0.479 |
| RRIRYRPPRLPRPRPRPNNNPRP | -0.989 |
| RRIRYRPPRLPRPRPRPNQMPRP | -0.194 |
| RRIRYRPPRLPRPRPRPNQTPRP | -0.0672 |
| RRIRYRPPRLPRPRPRPNRAPRP | -0.0548 |
| RRIRYRPPRLPRPRPRPNRCPRP | 0.00786 |
| RRIRYRPPRLPRPRPRPNTEPRP | -0.0461 |
| RRIRYRPPRLPRPRPRPNVEPRP | -0.155 |
| RRIRYRPPRLPRPRPRPNWKPRP | 0.138 |
| RRIRYRPPRLPRPRPRPNYNPRP | -1.43 |
| RRIRYRPPRLPRPRPRPNYVPRP | -0.466 |
| RRIRYRPPRLPRPRPRPPASPRP | 0.249 |
| RRIRYRPPRLPRPRPRPPCCPRP | -0.149 |
| RRIRYRPPRLPRPRPRPPDAPRP | 0.0465 |
| RRIRYRPPRLPRPRPRPPDHPRP | 0.0391 |
| RRIRYRPPRLPRPRPRPPDQPRP | -0.145 |

| Sequence | shrunken log2 fold change |
| --- | --- |
| RRIRYRPPRLPRPRPRPPDTPRP | -0.425 |
| RRIRYRPPRLPRPRPRPPFNPRP | -0.309 |
| RRIRYRPPRLPRPRPRPPFWPRP | 0.395 |
| RRIRYRPPRLPRPRPRPPGLPRP | 0.148 |
| RRIRYRPPRLPRPRPRPPIGPRP | -0.0423 |
| RRIRYRPPRLPRPRPRPPKEPRP | -0.00185 |
| RRIRYRPPRLPRPRPRPPLRPRP | -0.151 |
| RRIRYRPPRLPRPRPRPPMIPRP | -1.39 |
| RRIRYRPPRLPRPRPRPPMTPRP | -0.456 |
| RRIRYRPPRLPRPRPRPPNSPRP | -0.384 |
| RRIRYRPPRLPRPRPRPPNWPRP | -0.00249 |
| RRIRYRPPRLPRPRPRPPPRPRP | 1.5 |
| RRIRYRPPRLPRPRPRPPPTPRP | 0.867 |
| RRIRYRPPRLPRPRPRPPRHPRP | 0.00412 |
| RRIRYRPPRLPRPRPRPPRVPRP | -0.0115 |
| RRIRYRPPRLPRPRPRPPSPPRP | 0.398 |
| RRIRYRPPRLPRPRPRPPTGPRP | 0.0896 |
| RRIRYRPPRLPRPRPRPPTSPRP | -0.0241 |
| RRIRYRPPRLPRPRPRPPTTPRP | -0.165 |
| RRIRYRPPRLPRPRPRPPTWPRP | -0.0624 |
| RRIRYRPPRLPRPRPRPPYCPRP | -0.287 |
| RRIRYRPPRLPRPRPRPQCGPRP | -0.46 |
| RRIRYRPPRLPRPRPRPQCYPRP | -0.0301 |
| RRIRYRPPRLPRPRPRPQGNPRP | -0.0344 |
| RRIRYRPPRLPRPRPRPQICPRP | -0.00591 |

| Sequence | shrunken log2 fold change |
| --- | --- |
| RRIRYRPPRLPRPRPRPQIHPRP | -1.2 |
| RRIRYRPPRLPRPRPRPQIIPRP | -0.248 |
| RRIRYRPPRLPRPRPRPQISPRP | -0.0191 |
| RRIRYRPPRLPRPRPRPQIVPRP | -0.342 |
| RRIRYRPPRLPRPRPRPQLIPRP | -0.3 |
| RRIRYRPPRLPRPRPRPQNEPRP | -0.483 |
| RRIRYRPPRLPRPRPRPQNIPRP | -1.24 |
| RRIRYRPPRLPRPRPRPQNKPRP | -0.969 |
| RRIRYRPPRLPRPRPRPQPVPRP | -0.258 |
| RRIRYRPPRLPRPRPRPQPYPRP | -0.649 |
| RRIRYRPPRLPRPRPRPQREPRP | -0.00996 |
| RRIRYRPPRLPRPRPRPQRVPRP | -0.393 |
| RRIRYRPPRLPRPRPRPQSCPRP | 0.0148 |
| RRIRYRPPRLPRPRPRPQTHPRP | -1.08 |
| RRIRYRPPRLPRPRPRPQTQPRP | -0.275 |
| RRIRYRPPRLPRPRPRPQVQPRP | -0.0106 |
| RRIRYRPPRLPRPRPRPQVVPRP | -0.166 |
| RRIRYRPPRLPRPRPRPQVYPRP | -0.169 |
| RRIRYRPPRLPRPRPRPQWGPRP | 0.122 |
| RRIRYRPPRLPRPRPRPQYTPRP | -1.34 |
| RRIRYRPPRLPRPRPRPQYWPRP | -0.696 |
| RRIRYRPPRLPRPRPRPRACPRP | -0.143 |
| RRIRYRPPRLPRPRPRPRAWPRP | -0.214 |
| RRIRYRPPRLPRPRPRPRCAPRP | -0.199 |
| RRIRYRPPRLPRPRPRPRCFPRP | -0.152 |
